Data reported in patent US20240109960A1 (ARGENX, published 2024).
Substitutions are numbered along the chain they refer to. Names and notes keep the numbering of the source. One block for each binder: values may come before it.

Assays:
mouse IL-9 [1] = biological target: T1, mouse IL-9 (mouse, UniProt P15247 19-144); test: cell-based or functional assay
T1 sequence: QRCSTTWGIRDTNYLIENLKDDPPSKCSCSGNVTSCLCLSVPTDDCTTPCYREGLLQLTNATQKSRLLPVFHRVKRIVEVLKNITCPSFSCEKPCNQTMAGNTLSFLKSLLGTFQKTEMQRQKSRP

human IL-9 [2] = biological target: T2, human IL-9 (human, UniProt P15248 19-144); test: SPR (Biacore 3000), IL-9 immobilised on CM-5 chip, Fab periplasmic extract injected
T2 construct: Recombinant human IL-9 (R&D Systems) in SPR and BLI; baculovirus supernatant in the bioassay; also called hIL-9; Human IL-9 SN baculo
Procedure: (§1) The binding of Fabs (periplasmic extract) to their respective mouse or human targets was determined by surface plasmon resonance (SPR) using a Biacore 3000 apparatus (GE Healthcare). IL-9 was immobilized on a carboxymethyl dextran sensor chip (CM-5) using amine coupling in sodium acetate buffer (GE Healthcare). The Fab-containing periplasmic extracts were loaded with a flow rate of […]. The Fab binding and off-rates were measured over a 90 second period (Table 5). […] Furthermore, the ability of the antibodies to compete for human or mouse IL-9 binding to human or rat IL-9R was tested also in a Biacore 3000. For this assay, human or rat IL-9R was coated at high density on a carboxymethyl dextran sensor chip (CM-5). Then, a premade mixture of periplasmic extract (Fab) and IL-9 was injected.

mouse IL-9 [3] = biological target: T1, mouse IL-9; test: as above
Procedure: as §1

mouse IL-9 [4] = biological target: T1, mouse IL-9; test: BLI (Octet Red 96), mAb captured on anti-mIgG Fc sensor, mIL-9 in solution, 1:1 model
Procedure: (§2) The BLI experiments on the antagonistic antibodies were performed using an Octet Red 96 machine (Sartorius) in kinetics buffer (PBS, 0.1% (w/v) BSA, 0.02% (v/v) Tween20) at 298 K. Anti-hIgG Fc capture (AHC) or anti-mIgG Fc capture sensors (Sartorius) were functionalized with the IL-9 mAbs. […] Non-functionalized tips were used as negative controls in a double referenced setup. After subtracting the control sensorgrams, the resulting data was fitted with a 1:1 binding model. Data analysis was performed using the Data Analysis software 9.0.0.14 (Sartorius) (Table 6).

human IL-9 [5] = biological target: T2, human IL-9; test: SPR screening of Fab periplasmic extracts
Procedure: as §1

human IL-9 [6] = biological target: T2, human IL-9; test: cell-based or functional assay
human IL-9 [7] = biological target: T2, human IL-9; test: cell-based or functional assay; remark: listed apart in the source
human IL-9 [8] = biological target: T2, human IL-9; test: BLI (Octet Red 96), mAb captured on anti-hIgG Fc sensor, hIL-9 in solution, 1:1 model
Procedure: as §2

T2 sequence (P15248 19-144 limits assumed): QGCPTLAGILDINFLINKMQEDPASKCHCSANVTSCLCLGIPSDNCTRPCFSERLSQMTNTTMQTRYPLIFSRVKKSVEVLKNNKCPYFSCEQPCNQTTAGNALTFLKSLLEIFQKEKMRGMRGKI

B3: anti-mIL-9 antibody 35D8 (full mIgG2a) (antibody, V domains shown)
VH: QVQLVESGPGLVQPSQTLSLTCTVSGGSITTSYYDWSWIRQPPGKGLEWMGAIAYSGNAYYSPSLKSRTSISRDTSKNQFTLQLSSVTPEDTAVYYCAREDHYSDTHGWNDYWGQGTQVTVSS
VL: SSALTQPSAVSVSLGQTARITCQGGSIGNFGATWYQQKPGQAPVLLSLGEHSRPSGIPERFSGSKSGGTATLTISGAQAEDEADYYCQSFDYIGNDHVFGGGTHLTVL
notes: the BLI values are placed here; also called mouse IL-9 mAb
Kd (mouse IL-9 [4]): 0.11 nM
koff (mouse IL-9 [4]): 0.000159 s⁻¹
kon (mouse IL-9 [4]): 1.39e+06 M⁻¹ s⁻¹

B5: Fab 8C3 (Fab, V domains shown)
VH: EVQVQESGPGLVKPSQTLSLTCTVSGGSITTSSYGWMWIRQPPGKGLEWMGVIFSDGSTAYNPSLRSRTSISRDTSKNQFSLQLSSVTPEDTAVYYCARSFVRGVVIGELDYGMDYWGKGTLVTVSS
VL: AQAVVTQEPSLSVSPGGTVTLTCGLSSGSVTTSNYPGWFQQTPGQAPRTLIYSTSSRHSGVPSRFSGSMSGNKAALTITGAQPEDEADYYCALHMGSSTVFGGGTHLTVL
notes: Llama-derived Fab (VH-CH1 and VL-CL) from E. coli periplasmic extract; also called 9MP8C3
koff (human IL-9 [2]): 0.00067 s⁻¹
binding result (mouse IL-9 [3]): no binding

B6: anti-hIL-9 antibody 6D3 (full IgG) (antibody, V domains shown)
VH: QVQVQESGPGLVKPSQTLSLTCTVSGGPITTRYYAWSWIRQPPGKGLEWMGLIDYDGSVYYSPSLKSRTSISRDTAKNQFSLQLSSVTPEDTAVYYCARVSAATLFLDYWGQGTQVTVSS
VL: LSYELTQPSALSVTLGQTAKITCQGGSLGSSYAHWYQQKPDQAPILVIYDDDSRPSGIPERFSGSSSGGTATLTISGAQAEDEGDYYCQSYDSSANFVFGGGTKLTVL
notes: also called mAb 6D3; 9MP6D3
IC50, inhibition of human IL-9-induced Baf3hIL9RA6 cell proliferation (hexosaminidase, OD405) (human IL-9 [6]): 0.115 nM
Bioassay IC50 [pM]: inhibition of human IL-9-induced Baf3hIL9RA6 cell proliferation (human IL-9 [7]): 58.4 pM
Kd (human IL-9 [8]): 0.13 nM

B9: Fab 7D6 (Fab, V domains shown)
VH: QLQLVESGPGLVKPSQTLSLTCTVSGGSITTGYYAWSWIRQPPGKGLEWMGFIARDGSTSYSPSLKSRTSISRDTSKNQFSLQLSSVTPEDTAVYYCARAGEGRSWYPGYYYGMDYWGKGTLVTVSS
VL: AQAVVTQEPSLSVSPGGTVTLTCGLSSGSVTSSNYPGWYQQTPGQAPRVLIYNTNSRHSGVPSRYSGFISGNKAALTITGAEPEDEADYYCHLHKGSTGVFGGGTHLTVL
notes: it is treated as the same molecule; also called 9MP7D6
binding result (mouse IL-9 [3]): no binding

B12: Fab 6F2 (Fab, V domains shown)
VH: EVQLQESGPGLVKPSQTVSLTCTVSGGSITTRYYGWSWIRQPPGKGLEWMGVVYSDGSTSYSPSLESRTSISRDTSKNQFSLQLSFVTPEDTAVYYCARDRAEARLRVGPTGGNDYWGQGTQVTVSS
VL: AQAVVTQEPSLSVSPGGTVTLTCGLSSESVTSSNYPDWYQQTPGQVPRLLIYTTNSRHSGVPSRFSGSISGNKAALTITGAQPEDEADYYCGLYMGSTAVFGGGTKLTVL
notes: Llama-derived Fab (VH-CH1 and VL-CL) from E. coli periplasmic extract; also called 9MP6F2
binding result (human IL-9 [5]): binds

B14: Fab 6E2 (Fab, V domains shown)
VH: QVQLVESGGGLVQPGGSLRLSCAASGFTFSSSAMGWVRQAPGKGLEWVSTIVNSITTTYYADSVKGRFTISTDNAKNTLYLQIDSLKSEDTAVYYCGSLAGPYYDYWGQGTQVTVSS
VL: LSSALTQPSTVSVSLGQTARITCQGGSLGSYDAHWYQQKPGQAPVLVIHDNNSRPSGIPERFTGSRSGETATLTISGAQTEDEADYYCQSYDSTSDALVFGGGTQLTVL
notes: it is treated as the same molecule; also called 9MP6E2
binding result (mouse IL-9 [3]): no binding

Results, then the binder that gave them:

Bioassay IC50 [pM]: neutralisation of mouse IL-9 on TS1 cells (hexosaminidase activity) (mouse IL-9 [1]): 20.1 pM
B1: anti-mIL-9 antibody 35D8, new batch (mIgG1-N297A) (antibody, V domains shown)
VH: B3 VH
VL: B3 VL

binding result (human IL-9 [2]): no binding
koff (mouse IL-9 [3]): 0.00047 s⁻¹
B2: Fab 35D8 (Fab, V domains shown)
VH: B3 VH
VL: B3 VL
notes: it is treated as the same molecule

binding result (human IL-9 [5]): binds
B4: Fab 8G3 (Fab, V domains shown)
VH: EVQLVESGPGLVKPSQTLSLTCTVSGDSITTSYYGWGWIRQPPGKGLEWMGVIFSDGGTTYSPSLKSRTSISRDTSKSQFSLQLSSVTPEDTAVYYCARVQYYSGSYSYPTHIYDYWSQGTQVTVSS
VL: B5 VL
notes: Llama-derived Fab (VH-CH1 and VL-CL) from E. coli periplasmic extract; also called 9MP8G3

binding result (mouse IL-9 [3]): no binding
B7: Fab 6D3 (Fab, V domains shown)
VH: B6 VH
VL: B6 VL
notes: it is treated as the same molecule; also called 9MP6D3

IC50, inhibition of human IL-9-induced Baf3hIL9RA6 cell proliferation (hexosaminidase, OD405) (human IL-9 [6]): 6.3 nM
Bioassay IC50 [pM]: inhibition of human IL-9-induced Baf3hIL9RA6 cell proliferation (human IL-9 [7]): 2110 pM
Kd (human IL-9 [8]): 1.81 nM
B8: anti-hIL-9 antibody 7D6 (full IgG) (antibody, V domains shown)
VH: B9 VH
VL: B9 VL
notes: also called 9MP7D6

koff (human IL-9 [2]): 0.00013 s⁻¹
binding result (mouse IL-9 [3]): no binding
B10: Fab 7A4 (Fab, V domains shown)
VH: B9 VH with Q1E, L2V
VL: B9 VL with G37A, K95E, T108N
notes: Llama-derived Fab (VH-CH1 and VL-CL) from E. coli periplasmic extract; also called 9MP7A4

koff (human IL-9 [2]): 0.00044 s⁻¹
binding result (mouse IL-9 [3]): no binding
B11: Fab 6C4 (Fab, V domains shown)
VH: QVQLVESGGGLVQPGGSLRLSCAASGFTFDDYAMSWVRQAPGKGLEWVSAISWNGGSTYHAESMKGRFTISRDNAKNTLYLQMNSLKSEDTAVYYCAKNLYGSSWYEYDYWGQGTQVTVSS
VL: LSYELTQPSAVSTSLGQTARVTCQGDILESYGASWYQQKPGQAPVLVIYGDDSRPSGIPERFSGSSSGGTATLTISGAQAEDEADYYCLSADSSDYNAVFGGGTHLTVL
notes: Llama-derived Fab (VH-CH1 and VL-CL) from E. coli periplasmic extract; also called 9MP6C4

IC50, inhibition of human IL-9-induced Baf3hIL9RA6 cell proliferation (hexosaminidase, OD405) (human IL-9 [6]): 0.0609 nM
Bioassay IC50 [pM]: inhibition of human IL-9-induced Baf3hIL9RA6 cell proliferation (human IL-9 [7]): 30.9 pM
Kd (human IL-9 [8]): 0.24 nM
B13: anti-hIL-9 antibody 6E2 (full IgG) (antibody, V domains shown)
VH: B14 VH
VL: B14 VL
notes: also called mAb 6E2; 9MP6E2
